The record followed here is patent US20110262929A1 (FORERUNNER PHARMA RESEARCH, published 2011).

For test [1], the target named is T1, C-terminal V5 tagged HS6ST2_N-short (HS6ST2_N-short_ctV5), expressed in CHO DG44 cells (human, UniProt Q96MM7 147-605).
T1 construct: also called Q96MM7-2
T1 sequence: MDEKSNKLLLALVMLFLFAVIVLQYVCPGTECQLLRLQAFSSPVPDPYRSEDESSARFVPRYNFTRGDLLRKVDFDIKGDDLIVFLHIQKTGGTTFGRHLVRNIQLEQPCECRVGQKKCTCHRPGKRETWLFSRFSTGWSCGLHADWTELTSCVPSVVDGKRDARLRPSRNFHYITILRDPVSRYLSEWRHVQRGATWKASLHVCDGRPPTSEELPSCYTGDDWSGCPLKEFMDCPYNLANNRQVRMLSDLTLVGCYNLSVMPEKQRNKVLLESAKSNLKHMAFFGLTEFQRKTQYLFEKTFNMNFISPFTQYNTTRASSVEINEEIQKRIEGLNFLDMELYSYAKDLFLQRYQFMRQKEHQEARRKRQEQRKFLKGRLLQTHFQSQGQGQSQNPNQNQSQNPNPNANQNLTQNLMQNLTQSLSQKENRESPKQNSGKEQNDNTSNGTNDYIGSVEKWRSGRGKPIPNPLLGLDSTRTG
Put plainly: flow cytometry on HS6ST2_N-short_ctV5_CHO cells, antibody 2 µg/mL. How it is done:
(§1) Binding of the anti-HS6ST2 antibodies prepared in Example 2 to mHS6ST2 was evaluated by flow cytometry. The cells used were mHS6ST2_ctV5_CHO, HS6ST2_N-short_ctV5_CHO as a positive control, and the CHO DG44 cell line as a negative control.
(§2) Each anti-HS6ST2 antibody or mouse IgG1 (mIgG1, BD Biosciences Pharmingen) as a negative control was added to a final concentration of 2 μg/mL into 96-well U-bottom plates (Becton Dickinson) containing 5×10⁴ cells suspended in PBS (FACS buffer) supplemented with 0.5% bovine serum albumin and 0.1% NaN₃. After reaction on ice for 1 hour, the cells were washed with FACS buffer. Then, an FITC-labeled anti-mouse antibody (Goat F(ab′)₂ Fragment Anti-mouse IgG (H+L)-FITC, Beckman Coulter) was added as a secondary antibody, and the mixture was reacted on ice for 1 hour. The cells were washed with FACS buffer, and then suspended in FACS buffer containing 10 μg/mL propidium iodide (PI) (Sigma) and assayed by a flow cytometer (FACS Calibur, Becton Dickinson). The assay data were analyzed by CELLQuest software (Becton Dickinson), and the geo-mean of FITC fluorescent intensity was calculated for the PI-negative population of viable cells.
(In general: In flow cytometry, cells or beads pass a laser one at a time.)

For the next test, the target named is T2, GST_HS6ST2_N (human, UniProt Q96MM7 170-321).
T2 construct: Expressed in E. coli BL21 (DE3); whole cell lysate blotted after SDS-PAGE; also called GST fusion of amino acids 24-175 of HS6ST2_N-short; not shown: N-terminal glutathione S-transferase (GST) of vector pGEX-6P-1, with the vector's linker
T2 sequence: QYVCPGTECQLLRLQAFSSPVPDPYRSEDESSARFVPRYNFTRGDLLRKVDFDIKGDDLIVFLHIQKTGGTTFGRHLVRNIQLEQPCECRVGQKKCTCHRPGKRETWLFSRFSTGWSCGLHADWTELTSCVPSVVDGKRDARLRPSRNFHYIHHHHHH
Description: Western blot of E. coli whole cell lysate, antibody 10 µg/mL. How it is done:
(§3) GST_HS6ST2_N, GST_HS6ST2_mid, GST_HS6ST2_C, GST_HS6ST2_C1 and GST_HS6ST2_C2 were expressed in BL21 (DE3) Competent Cells (Takara Bio), and the whole cell lysates were resolved by SDS-PAGE electrophoresis and then transferred to PVDF membranes (Immobilon-P, Millipore) and Western blotted with the anti-HS6ST2 antibodies. The anti-HS6ST2 antibodies were used at 10 μg/mL, while the secondary antibody (HRP-anti mIgG, GE Healthcare) was used as a 3000-fold dilution, and blots were detected with ECL Western Blotting Detection Reagents (GE Healthcare). As a result, the anti-HS6ST2 antibodies A1, A10, B5, B6 and C8 bound to GST_HS6ST2_C2, A6 bound to GST_HS6ST2_C1, and C10 bound to GST_HS6ST2_N.
(In general: In western blotting, separated proteins are transferred to a membrane and probed.)

Test [2] addresses T3, C-terminal V5 tagged mouse HS6ST2 (mHS6ST2_ctV5), expressed in CHO DG44 cells (mouse, UniProt Q80UW0 148-612).
T3 construct: also called mHS6ST2_ctV5_CHO; mouse HS6ST2 transcript variant 2
T3 sequence: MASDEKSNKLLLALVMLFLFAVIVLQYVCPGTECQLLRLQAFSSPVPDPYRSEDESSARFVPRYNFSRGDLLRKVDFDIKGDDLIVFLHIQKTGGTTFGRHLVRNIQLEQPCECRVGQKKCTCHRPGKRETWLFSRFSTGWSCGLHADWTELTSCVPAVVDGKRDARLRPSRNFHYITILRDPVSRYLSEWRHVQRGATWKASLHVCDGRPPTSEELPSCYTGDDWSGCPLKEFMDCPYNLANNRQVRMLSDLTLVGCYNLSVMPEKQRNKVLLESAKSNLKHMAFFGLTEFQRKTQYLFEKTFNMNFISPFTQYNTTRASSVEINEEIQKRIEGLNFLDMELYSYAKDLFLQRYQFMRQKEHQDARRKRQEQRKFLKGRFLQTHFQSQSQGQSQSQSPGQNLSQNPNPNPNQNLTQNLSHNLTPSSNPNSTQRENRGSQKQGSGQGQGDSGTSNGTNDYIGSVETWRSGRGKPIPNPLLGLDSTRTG
Description: flow cytometry on mHS6ST2_ctV5_CHO cells, antibody 2 µg/mL. The method, then:
as §1, §2

Test [3] concerns the target T4, C-terminal V5 tagged HS6ST2_N-long (HS6ST2_N-long_ctV5), expressed in CHO DG44 cells (human, UniProt Q96MM7 1-605).
T4 construct: On cells in flow cytometry; also called Q96MM7-1
T4 sequence: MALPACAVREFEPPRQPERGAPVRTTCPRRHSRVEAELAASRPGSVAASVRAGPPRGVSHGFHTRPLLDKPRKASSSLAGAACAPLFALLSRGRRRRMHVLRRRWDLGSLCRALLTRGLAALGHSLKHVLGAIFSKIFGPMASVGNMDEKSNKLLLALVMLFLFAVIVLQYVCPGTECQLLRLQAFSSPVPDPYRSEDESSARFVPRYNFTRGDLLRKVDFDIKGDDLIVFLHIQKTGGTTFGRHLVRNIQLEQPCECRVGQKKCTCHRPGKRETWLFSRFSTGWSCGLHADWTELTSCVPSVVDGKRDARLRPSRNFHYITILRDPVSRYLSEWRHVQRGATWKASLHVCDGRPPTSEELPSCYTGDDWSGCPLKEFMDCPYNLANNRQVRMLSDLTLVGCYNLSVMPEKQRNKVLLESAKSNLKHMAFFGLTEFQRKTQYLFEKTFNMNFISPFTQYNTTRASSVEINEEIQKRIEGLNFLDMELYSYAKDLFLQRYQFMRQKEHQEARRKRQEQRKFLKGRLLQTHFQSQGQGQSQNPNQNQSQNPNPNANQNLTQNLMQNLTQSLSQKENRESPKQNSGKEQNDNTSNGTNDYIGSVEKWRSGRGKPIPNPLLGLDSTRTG
Put plainly: flow cytometry on HS6ST2_N-long_ctV5_CHO cells. How it is done: as §2
Binding activity of the anti-HS6ST2 antibodies prepared in Example 2 to HS6ST2_N-long was evaluated by flow cytometry. The cells used were HS6ST2_N-long_ctV5_CHO cells and HS6ST2_N-short_{—} ctV5_CHO cells as a positive control, and evaluated in the same manner as in Example 3. The primary antibodies were used at a concentration of 10 μg/mL.

For test [4], the target named is T3, C-terminal V5 tagged mouse HS6ST2 …. Description: flow cytometry on mHS6ST2_ctV5_CHO cells. How it is done:
as §1, §2

Another test addresses T5, GST_HS6ST2_C2 (human, UniProt Q96MM7 525-605).
T5 construct: Expressed in E. coli BL21 (DE3); whole cell lysate blotted after SDS-PAGE; also called GST fusion of amino acids 379-459 of HS6ST2_N-short; not shown: N-terminal glutathione S-transferase (GST) of vector pGEX-6P-1, with the vector's linker
T5 sequence: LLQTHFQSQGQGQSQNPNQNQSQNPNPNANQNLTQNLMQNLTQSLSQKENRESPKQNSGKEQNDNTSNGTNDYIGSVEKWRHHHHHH
Put plainly: Western blot of E. coli whole cell lysate, antibody 10 µg/mL. The method, then:
as §3

B1: anti-HS6ST2 antibody C10 (antibody, mouse IgG1, V domains shown)
VH: QVQLHQPGSVLVRPGASVKLSCKASGYTFTDSWMHWAKQRPGQGLEWIGEIRPNSGKTNYNEKFKGKATLTVDTSSSTAYVDLRSLTSEDSAVYYCVRTYMSHFDYWGQGTTLTVSS
VL: DIVMTQAAFSNPVTLGTSASISCRSSKSLLHSNGITYLYWYLQKPGQSPQLLIYQMSNLAPGVPDRVSSSGSGSDFTLRISRVEAEDVGVYYCAQNLELPFTFGSGTRLEIK
notes: also called clone C10
As to B1, the binding result (in test [1]; in the test with GST_HS6ST2_N; in test [2]; in test [3]) was “binds” throughout.

B2: anti-HS6ST2 antibody B6 (antibody, mouse IgG1, V domains shown)
VH: EVQLQQSGAELVRSGASVKLSCTASGFNIKDYYMHWVKQRPEQGLEWIGWIDPDNGDTEYAPKFQGKATMTADTSSNTAYLQLSSLTSEDTAVYYCNAGNGNYWFAYWGQGTLVTVSA
VL: DVVMTQTPLSLPVSLGDQASISCRSSQSLVHSNGNTYLHWNLQKPGQSPKLLIYKVSNRFSGVPDRFSGSGSGTDFTLKISRVEAEDLGVYFCSQTTLVPYTFGGGTKLEIK
notes: also called clone B6
For the molecule B2, the binding result in test [1] is listed as “binds”; in test [4], “no binding (tested: 2 µg/mL)”; in the test with GST_HS6ST2_C2, “binds”; in test [3], “binds”.

B3: anti-HS6ST2 antibody B5 (antibody, mouse IgG1, V domains shown)
VH: EVKLVESGGGLVKSGGSLKLSCVVSGFTFSRYAMSWVRQTPEKRLEWVASIVSGDKTYYPDSVKGRFTISRDNARNILYLQMSSLRSEDTAMYYCTRELGYFDVWGAGTTVTVSS
VL: DVVMTQTPLSLPVSLGDQASISCRSSQSLVHSNGNTYLHWYLQKPGQSPKLLIYKVSNRFSGVPDRFSGSGSGTDFTLKISRVEAEDLGVYFCSQSIHVPPLTFGAGTKLELK
notes: also called clone B5; B5-biotin
B3: the binding result in test [1] is on record as “binds”; in test [4], “no binding (tested: 2 µg/mL)”; in the test with GST_HS6ST2_C2 it was “binds”; in test [3] it was “binds”.

B4: anti-HS6ST2 antibody A10 (antibody, mouse IgG1, V domains shown)
VH: EVQLQQSGAELVKPGASVKLSCTASGFNIKDTYMHWVKQRPEQGLEWIGRIDPANGNTKFDPKFQGKASITADTSSNTAYLQLSSLTSEDTAVYYCATNLLRAMDYWGQGTSVTVSS
VL: DIVMSQSPSSLTVSVGEKVTMSCKSSQSLLYSSNQKNYLAWCQQIPGQSPKLLIYWASTRESGVPDRFAGSGSGTDFTLTISSVKAEDLAVYYCLQYFTYPFTFGSGTKLEIK
notes: also called clone A10
In the case of B4, the binding result is reported as “binds” in test [1], “no binding (tested: 2 µg/mL)” in test [4], “binds” with GST_HS6ST2_C2 and “binds” in test [3].
